Where a chain is given by its changes, count along the chain named.
How the values were obtained:
[1] = target: T1, variant nuclease T338G combination (P14R, D32R, I61R, E311R, T338G); assay: cell_activity; PAM 5'-TTTA-3'; settings: tags: pcDNA3.1 expression
T1 chain: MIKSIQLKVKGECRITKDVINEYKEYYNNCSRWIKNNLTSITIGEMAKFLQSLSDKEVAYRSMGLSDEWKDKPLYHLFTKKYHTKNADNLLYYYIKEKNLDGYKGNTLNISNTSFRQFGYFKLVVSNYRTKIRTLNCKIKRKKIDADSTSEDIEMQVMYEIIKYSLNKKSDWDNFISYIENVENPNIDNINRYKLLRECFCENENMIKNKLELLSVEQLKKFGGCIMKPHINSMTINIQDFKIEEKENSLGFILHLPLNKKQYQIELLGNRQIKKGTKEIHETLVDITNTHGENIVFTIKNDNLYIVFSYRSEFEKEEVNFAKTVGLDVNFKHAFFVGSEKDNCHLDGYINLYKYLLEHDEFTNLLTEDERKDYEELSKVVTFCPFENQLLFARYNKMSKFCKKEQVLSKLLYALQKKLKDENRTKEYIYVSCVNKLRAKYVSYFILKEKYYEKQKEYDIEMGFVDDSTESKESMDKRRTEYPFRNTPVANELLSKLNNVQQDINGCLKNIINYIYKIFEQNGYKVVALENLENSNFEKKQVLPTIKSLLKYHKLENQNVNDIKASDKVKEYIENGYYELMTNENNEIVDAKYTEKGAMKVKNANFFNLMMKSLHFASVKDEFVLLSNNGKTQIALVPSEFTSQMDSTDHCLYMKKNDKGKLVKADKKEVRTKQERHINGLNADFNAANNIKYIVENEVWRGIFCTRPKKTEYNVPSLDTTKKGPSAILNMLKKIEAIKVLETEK
Outline: (§1)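 HEK293T cells were lipofected with nuclease plasmid (pcDNA3.1 backbone) plus RNA guide plasmid, with guide omitted in negative controls. After ~72 h cells were lysed in QuickExtract and % indels were derived from NGS reads, averaged over two bioreplicates and two technical replicates.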

[2] = target: T2, variant nuclease K35G combination (P14R, D32R, I61R, E311R, K35G); assay: cell_activity; PAM 5'-TTTA-3'; settings: tags: pcDNA3.1 expression
T2 chain: T1 chain with K35G, G338T
Outline: as §1

B1: VEGFA crRNA ; VEGFA target (ssRNA ; dsDNA)
RNA: CUUGUUGUAUAUGUCCUUUUAUAGGUAUUAAACAACUCCAGACCACCAAUGGGCAC
DNA 1: TCCAGACCACCAATGGGCAC
DNA 2: GTGCCCATTGGTGGTCTGGA
indel activity [1]: 2.72 fold of WT
indel activity [2]: 2.69 fold of WT
